# Measured values as given in the DeepSol protein solubility set.
# Experiment: soluble on expression in E. coli; label from the status in PepcDB or PDB records
row,Sequence,soluble on expression in E. coli
1,MAHHHHHHMSSTASPNAALLAEINDLKVKLAEKEALLQPEGVVSKKSKKKSQANMIEKEPVQGCRDFPPEDMRVRRHLFGVFHETARKFGFEEYDAPVLESEELYIRKAGEEITDQMFNFVTKGGHRVTLRPEMTPSLVRLQLAKGRSLLLPAKWYSIPQCWRYEAISRGRRREHYQWNMDIVGVKSVAAEVELVCAACAAMESLGLTAQDVGVKVNSRKLLQCALAGAGVPDSLFAPVCVIVDKMEKLPEEQIRAELEDLALDGQQADDIIRTLSLRSVDDFDKNLFDKNGALSELAEFFSQMQMYGYGDWIQFDASVVRGLAYYTGIVFEAFDRSGEFRAIYGGGRYDNLFTLYGSPQPISCVGFGFGDCVIIELLKKKKLINSLPHKVDDVVIPFNESQRGTALKVLKQLRDKGRSADIIMDSKKVAQTFSYADRIGADRAVLIAPDETEKGMARVKMLREGQRGEDDRGDLVPFEDL,soluble
2,MAHHHHHHMSTSLRHTALHAFHVGRRARMAPFSGYDMPINYAAGAVREHLHTREAASIFDVSHFGVVEVFGADREKFLEWLTPSAPSRMPSGKAALTMFLNDRAGVKDDCIVTRYDDRLVVVVNAGCKDKMIAYMRQSVADFTGDVALEMEDRAIVTVQGPKAASALAPHVEDLDKLLFMQGRQDVDIRGMRIKTLTRCSYSGEDGFDIVMREEDALPIVELLLQNPDVQAAGLAARDTLRTEAGLNLYSHELSEDIDPVAARCMWCVPKHRMTEGGFVGHERLAQLVKKAKELVPRVRVGILAAPERGPIPRNGTPVLVEGKCVGVVTSGVPSPTLGRNIALGYVDRSYSNIGQQVGLDVRGKLVKAEIVNSRFVAPRYYRG,not soluble
3,MAHHHHHHMTATPEMAEYCLRVIAQQISAPDDPSVPLPVIPKEDSACFVTLTTLPQERLRGCIGSLQPGDLKKDMRRLALAAAFQDSRFPKVKEEELPTLRCCFSLLHTFEPCAAWNDWEIGKHGLIADYDGYSATYLPSVAEEQGWDHRETLVSLLEKAGFEKPVTDHVLGKVRLTRYQVSKALKDYKDIIAS,not soluble
4,MAHHHHHHMTGVASLHRESERSKRKSSGGERNADEADTEGTAGARNAHAKQKQKTVRQGVAVCVWCCGCLPALTARKQNKRERNVCSAPQALVARPHVTAPSARRSSRPLLMRAAGEAHRAVVMSVSVGVRVEQLGGKHTAPLTGRVQKKQLKEGRVEKKRTSTVIAPESKKEKGW,not soluble
5,MAHHHHHHMTIRVAINGYGRIGRNTLRAFYENGKKHDLEIVAINDLGDAKTNAHLTQYDTAHGKFPGEVSVDGDYLVVNGDRIRVLANRNPAELPWGELGVDVVMECTGFFTSKEKASAHLKGGAKKVIISAPGGKDVDATIVYGVNHDVLKAEHTVISNASCTTNCLAPLVKPLNDKIGLETGLMTTIHAYTNDQVLTDVYHEDLRRARSATHSQIPTKTGAAAAVGLVLPELNGKLDGYAIRVPTINVSIVDLSFIAKRDTTAAEVNAIMKEASEGALKGILGYNEAPLVSIDFNHNPASSTFDATLTKVSGRLVKVSSWYDNEWGFSNRMLDTAIALANAK,soluble
6,MAHHHHHHMTMAVDSHDPSVRYLFFEEQRQQKQQKQQVPVDGTSSGSLPLLYSARPACHPVDDVRSAAALRRITEGFLNLDQQMKMWRRHLHRKLGNLESRLSRCESVLLQKKTPVPQPAVVKASTTTYNDIYDGVEDEFKRLHLTVTALREKAAECCRDGQSFFPPKRQGKKGKGEPAGKHAMCDDEDVSIEGGGVFDSHCEHVGVAKRMSPTADTTAVGSGESVGLTPDGAEMPSACLFLGETVVDGDWQHVEGMQPREASCCLYKLQNQSSFQPTPSFSTMTPVSEQKYFAMDSTCRHDWSPFIHEPCRPEKRIVRGGKPATMDKTPTNVPDLRMRSTATTTQEKCCEINESPLVQASSLERRLIYSPETPKRMQGQVSPVPSDAARSASSSTKRGMEIPLSNADSVEHLHNLAEPALSSKPVTNGQKRPDATPSSQHGGAFVDAFASAVAGVPSSSPLYVLPQQIYSSRGNSCDRSSEWDNTEDEEKASESSNEEVLSAVALSMPTVGTVWQRVVSLAHAEQYYDQLSRLNHPPLSMLSSDTLEISELTVQET,not soluble
7,MAHHHHHHMTMFGKIHVYKRTYEICSIILKNYFVYYHPLYLDFYLSFAWYNKGSNNEKAFLHFLREFILLQINVCSKRCREKKMEILKMNENFEHLVFSIIFKNNKEEEDNKNKYDINENVNIRRLDNYVSSSFLNDICYPHCNIYNENKNFDILKNFDFLKSNILLASSLHYFINSLFCYYNNDDFINKYKSTDFIFDSILLCIKSLESVKRTYRLSTYTEKGFGNVCLDISLMIIKLKLKHPKFLEKKDNWMLYALRNAMEAEEVTEKK,not soluble
8,MAHHHHHHMTNRGVVNAEELRGAVCAIVSRYQKTPQRRLLVCVAGRPGSGKTTIANILAEEARELLRKVSSDPRDHAENAVVVMPMDGYHLYRKTLHAMPNREEAIARRGAEWTFDARKLCRDLQAIRLPSETADKKGAPLYDDVFVPSFDHSVGDPKERDICVSGSAAIVIVEGNYLLYRGTPTWAEVNRCFDMGVFQACPAATCARRLCRRHMAAWGISEAEAMVRATGSDAMNGDLVETTGKNADIVLHSIESSI,soluble
9,MAHHHHHHMTRVLVNREDCSVQVKGDLITFLYATVAKDPLVVASRNVTQLLRSRKDDTAAKLVADGESYVLKFESLRDREGFIESIVRAQEAEQALSNDEWVASTICHAAVDVGVLDQEELRAIMSAAGQRGVEQAFDALETLVDRETFQLLPITEQMENDVLRQTPVLAAIFQERVVDKETKKSFWEAVVRKYFCFSRTFLEEDIQRLEGARSVATAASPPLSGSAATSSLSVINASSMCALPKGAATAMLDTDINEEDLLHLDENVEPLQQSFHGLFAAHRHLPVGSASVLPVNGAALPFPQETAEPSPVYRPRFVGFRVLHQLPSETIEKAALETLRTFWRSSVKQRRSILAKYTRISKKGGGGFIQRMCLEQADRAVQNT,not soluble
10,MAHHHHHHMTSGPNNTTNIYDPIEVARANPYFKRNHMGQVTCTLCGIYCPEENNFLKHIAGKTHALQLERRQHKELRHLRLQEEERLNTEAEERARKEEALLALSGGQAGSGAAGGAGALSSAAAAAANARFGTPLYSFRTEHDEVAYRTKVWIEVMFTQAEEGTRPLHRWLSAREQHVEKPPDDYFVYLLFACEGYTTVALKFPAKANRSQPRDVLEEADGSTSEAYWCSWDPLQKVYTLFFALSR,soluble
11,MAHHHHHHMTSLHPFEYAFMAGASFSPEERVQLTSSLPLLSVQTKRKNLVLWGKIFGCKADYIIVEAFDDDAVVEPELYHTLDEGRTFSLLGTFSSVFSTCPGYSSCSGLQQAEWKQFMLLGMRGPFFGDPAYEYRVSNHSSSDSAPEIQSVKESVRLALFVEEFDHECRVVPRGAYMKAERQATATIASTTGAEVDAGERAEVRRNTALADFRERRRERCRCGTTTTCVP,not soluble
12,MAHHHHHHMVENELLYENDVSNSGLDGKPRLHSFFNKDGLLLRTYSWTVKKAIGIFLLIHGLNGHVRLQYLRQNVEVISNDKAILKDQDNYYVYKDSWIEKLNDKGYSVYGIDLQGHGLSEGWENLKANINNFDDLVYDVIQYLEEINRTVCLDYERNKYLRAIREKNTDMKALKKDKIPIYIMGLSMGGNVVLRTLELLGKSGDYKNLNIKGCISLSGMICLEELSSKASMKYKYFLVPFSKFISYIFPKCRINQNFNFEMFPFVNDIINFDKHRSKKWITFKFGHQILRSITNLRKDIQYIPKDIPILFVHSIHDCACYYGGVVTFYDQLDNDKKELYTIYDMDHLLTMEPGNEKVLEKVLDWISGSFNNKRRRRRTSS,not soluble
13,MAHHHHHHMVFFFPSFFFHNHDRELSCGKVSKAFIYIKKIHKMRRVSSLKEYNSLKEEAGNGLGLVVHFSASWCEPCKNVGSMLEGYLSQYNQKVLFAEVDADLVTNVCEAENVECVPFIVFFRTSSRERAQERVADVVGGKLDHLEMNLVSLYGNGHDTRESFPDLNEYLKYLTSRKGVVAFITGTPSRPRCGFTGRLVEIFYELGIKFIYYDVWASDEVCEGLKKYSEWPTYPQVYVDGELIGGYDICSQLKESGELKAILKH,soluble
14,MAHHHHHHMYAPFAAQEGNGGMFDFFFSAAASETLCASSAGSNSNNTGIGHGGGEAANGFNAASAGPLVENNNSNDDRVGRLNFDFASFFFQGGQSGAYDDSGLDAAGRGDDGSGADARRSEHYIQRGSADAADSTGKGVLPALGFFFPEDQVAPAAAGGSLILPPTSWCVESAAGADNRYSPPQVQPQNPAAVRETAASLKGDEAAHTVAPPGAALTVLKSDPTHIAPVDQTLVQRLPCEHASSSAMDHECSLAAALAAAPSSLGLLSDEESQRTTVPLSRTSDAEEAKCDETPTRLVAGNSCPEPEARDSSVAEGVAEEDAMPAPTHSRQPPPRVPVVSLPRSSHPPGAAPAGAVVTPTPPSPRQPPAPLTVSTSTPYRPEVPLLIGPAGHDATSVALSKAIGEAEEVWAHRLDMVPITCPERRDAEMGMSCSGFTPSSSSDAVFLAEVAQLQQQTARLTEESARSVTSLQVLTSDLLRILGPHAALSSFAGEQYAGTPLVHLPWALIAVLEGLLNDDADAEEKAEGQLVAPRPSSEGVESGSSGVHDA,not soluble
15,MAHHHHHHSLAYGNINQPFSLESLPDELIPENLYQIETDSSRVFQRHQCRRLAHLLLFQLLKIAGKSTALLSQIHRTESGRPYFLDERIDFNISHSGDWVAVILDIRNEEKSAVGIDIEFPKIRNFTALMEHIAPKEEIDWFHHQQDSLNAFYRCWCLREAVLKSQGFGIVKLSNVRHFPEQQKIFSDYCPQGQLWFTDELPIYLAAFVNHQEKLPHFYEWNRESLQIKELEKYVLYEVNEG,soluble
16,MAHSAAAVPLGALEQGCPIRVEHDRRRRQFTVRLNGCHDRAVLLYEYVGKRIVDLQHTEVPDAYSGRGIAKHLAKAALDFVVEEDLKAHLTCWYIQKYVKENPLPQYLERLQP,not soluble
17,MAIDLAEVTGAKAAQERKKEQPTIANGLDKNAFMKLFLEQLKNQDPTAPMETDKIITQTAQLTQVEMQEENKKTMQEVASAMKSNKETNESLKDFQGALKDTMENLNKGMDDSLKANNALREVTALNSVSMIGKIAETDVSGANFDGNNKLSFSLFFDEKIDASKGVPAIQILNENNELVKTIPLKDYNGQKGYINFEWDGTNEKGEKVPKGNYKIKAEYNLDSHSKQYLQTRIGRGEVESVIFDKGKPMLRMGEMVLPIDSAIEFYQPDQKPLEQKLSDQKPIDQKPLDQKPQTPPKETA,not soluble
18,MAIHNRAGQPAQQSDLINVAQLTAQYYVLKPEAGNAEHAVKFGTSGHRGSAGRHSFNEPHILAIAQAIAEERAKNGITGPCYVGKDTHALSEPAFISVLEVLAANGVDVIVQENNGFTPTPAVSNAILVHNKKGGPLADGIVITPSHNPPEDGGIKYNPPNGGPADTNVTKVVEDRANALLAGGLQGVKRISLDAAMASGHVKAVDLVQPFVEGLADIVDMAAIQKAGLTLGVDPLGGSGIEYWKRIAEHYKLNLTLVNDQVDQTFRFMHLDKDGAIRMDCSSECAMAGLLALRDKFDLAFANDPDYDRHGIVTPAGLMNPNHYLAVAINYLFQHRPLWGKDVAVGKTLVSSAMIDRVVNDLGRKLVEVPVGFKWFVDGLFDGSFGFGGEESAGASFLRFDGTPWSTDKDGIIMCLLAAEITAVTGKNPQEHYNELAARFGAPSYNRLQASATSAQKAALSKLSPEMVSASTLAGDPITARLTAAPGNGASIGGLKVMTDNGWFAARPSGTEDAYKIYCESFLGEEHRKQIEKEAVEIVSEVLKNA,soluble
19,MAIKSVLFLRSNPVAPDPRVAKEAQALADAGYKVGVVAWDRTGELPKVEETPFGLVERLPIKGSFRSGLANLLPLVRFNLALLWHLIKRRSTYDAIHACDFDTVLPALVAAKLLGKKVVYDVFDFYADMLRATPGWIKSIIKKVDLRLMGWVDAVILADESRVKQIQGARPKRLTFIYNSPPIEDPFPLPPAPPPLRIAYVGLLQKERGILQVIELLRRHPEWELDLGGFGGDEEEIRRAVADLPNVRYHGRVPYEKALELMSNAHLLFATYDPSIPNHRYSSANKLFEAMAIGRPIVVARDTGMDQLVQQYALGFVVEYGNLAALEDAFARVASWDLQRFEEFSQKAQEVYVTRFAWRIMKERLIALYRKLEE,soluble
